# Assay results as given in article PMC13419597, “An Acetylation-Primed SUMOylation Switch Controls RORβ Stability through a p300-SIRT1 Regulatory Axis” (Research Square, 2024).
# T1: His-HA-RORβ (isoform 1) (human, UniProt Q92753-1 1-459)
# T1 construct: Retinoic acid receptor-related orphan receptor beta (RORβ), human, isoform 1 (RORβ1); the printed residue numbers (K11 to K459 at the C-terminus of the LBD) fit the 459-residue form; Same plasmid used in TC28a2 (RIME) and HEK293T (co-IP, IP-MS); also called HA-tagged RORβ; RORβ WT; source: TC28a2 or HEK293T, transiently transfected (pCMV6), in lysate
# T1 sequence (looked up): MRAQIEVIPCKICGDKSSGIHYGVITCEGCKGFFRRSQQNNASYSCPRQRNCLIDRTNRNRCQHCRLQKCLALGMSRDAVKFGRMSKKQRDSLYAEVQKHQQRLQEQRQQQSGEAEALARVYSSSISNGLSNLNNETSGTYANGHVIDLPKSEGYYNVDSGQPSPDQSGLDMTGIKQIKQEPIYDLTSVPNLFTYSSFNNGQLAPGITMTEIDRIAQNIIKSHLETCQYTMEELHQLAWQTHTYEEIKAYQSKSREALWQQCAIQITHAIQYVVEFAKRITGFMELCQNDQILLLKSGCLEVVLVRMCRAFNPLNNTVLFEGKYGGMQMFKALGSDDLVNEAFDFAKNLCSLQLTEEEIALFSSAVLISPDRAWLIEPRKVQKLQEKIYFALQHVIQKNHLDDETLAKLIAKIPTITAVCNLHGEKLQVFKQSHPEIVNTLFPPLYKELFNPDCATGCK
# Target: T1, His-HA-RORβ (isoform 1)
# Test: affinity purification with mass spectrometry; RIME: HA-RORβ transfected in TC28a2 chondrocytes, 1% formaldehyde crosslinking in cells, nuclear lysate, anti-HA magnetic beads, HA-peptide-blocked control; also with SIRT1 activator SRT2104 against DMSO
# Details: partners not purified
binder,measurement,value
"PIAS1, endogenous in TC28a2 (enzyme, human (endogenous in TC28a2), UniProt O75925 1-651, looked up, E3 SUMO-protein ligase PIAS1, endogenous in TC28a2 human chondrocytes; source: endogenous, TC28a2 nuclear lysate) MADSAELKQMVMSLRVSELQVLLGYAGRNKHGRKHELLTKALHLLKAGCSPAVQMKIKELYRRRFPQKIMTPADLSIPNVHSSPMPATLSPSTIPQLTYDGHPASSPLLPVSLLGPKHELELPHLTSALHPVHPDIKLQKLPFYDLLDELIKPTSLASDNSQRFRETCFAFALTPQQVQQISSSMDISGTKCDFTVQVQLRFCLSETSCPQEDHFPPNLCVKVNTKPCSLPGYLPPTKNGVEPKRPSRPINITSLVRLSTTVPNTIVVSWTAEIGRNYSMAVYLVKQLSSTVLLQRLRAKGIRNPDHSRALIKEKLTADPDSEIATTSLRVSLLCPLGKMRLTIPCRALTCSHLQCFDATLYIQMNEKKPTWVCPVCDKKAPYEHLIIDGLFMEILKYCTDCDEIQFKEDGTWAPMRSKKEVQEVSASYNGVDGCLSSTLEHQVASHHQSSNKNKKVEVIDLTIDSSSDEEEEEPSAKRTCPSLSPTSPLNNKGILSLPHQASPVSRTPSLPAVDTSYINTSLIQDYRHPFHMTPMPYDLQGLDFFPFLSGDNQHYNTSLLAAAAAAVSDDQDLLHSSRFFPYTSSQMFLDQLSAGGSTSLPTTNGSSSGSNSSLVSSNSLRESHSHTVTNRSSTDTASIFGIIPDIISLD","log2 fold change of PIAS1 in RORβ immunoprecipitates, SRT2104 against DMSO",~-0.4 log2 fold change (SRT2104/DMSO)
